In test [1] the target is GLP-1 receptor.
The target in test [2] is GLP-1 receptor. The source holds these as a separate data set.

In test [1], EX (peptide) had an IC50 of 0.1 nM. In test [2], this substance had an EC50 (cAMP assay) of 0.55 nM.

Usually IC50 stands for the concentration needed to halve the response being measured. High values mean weaker potency, low ones greater potency.

The values are drawn from patent US20100016547A1, “Glycosilated Peptide and Medicine Comprising It as an Effective Ingredient” (priority 2005, published 2010).
